# Data reported in PMC10131064 (The Journal of Biological Chemistry, 2023).
# Positions count from the first letter of the chain named.
# T1: human MDGA1 V314D soluble ectodomain, (His)6-tagged (human, UniProt Q8NFP4-1 22-920, V314D)
# T1 sequence: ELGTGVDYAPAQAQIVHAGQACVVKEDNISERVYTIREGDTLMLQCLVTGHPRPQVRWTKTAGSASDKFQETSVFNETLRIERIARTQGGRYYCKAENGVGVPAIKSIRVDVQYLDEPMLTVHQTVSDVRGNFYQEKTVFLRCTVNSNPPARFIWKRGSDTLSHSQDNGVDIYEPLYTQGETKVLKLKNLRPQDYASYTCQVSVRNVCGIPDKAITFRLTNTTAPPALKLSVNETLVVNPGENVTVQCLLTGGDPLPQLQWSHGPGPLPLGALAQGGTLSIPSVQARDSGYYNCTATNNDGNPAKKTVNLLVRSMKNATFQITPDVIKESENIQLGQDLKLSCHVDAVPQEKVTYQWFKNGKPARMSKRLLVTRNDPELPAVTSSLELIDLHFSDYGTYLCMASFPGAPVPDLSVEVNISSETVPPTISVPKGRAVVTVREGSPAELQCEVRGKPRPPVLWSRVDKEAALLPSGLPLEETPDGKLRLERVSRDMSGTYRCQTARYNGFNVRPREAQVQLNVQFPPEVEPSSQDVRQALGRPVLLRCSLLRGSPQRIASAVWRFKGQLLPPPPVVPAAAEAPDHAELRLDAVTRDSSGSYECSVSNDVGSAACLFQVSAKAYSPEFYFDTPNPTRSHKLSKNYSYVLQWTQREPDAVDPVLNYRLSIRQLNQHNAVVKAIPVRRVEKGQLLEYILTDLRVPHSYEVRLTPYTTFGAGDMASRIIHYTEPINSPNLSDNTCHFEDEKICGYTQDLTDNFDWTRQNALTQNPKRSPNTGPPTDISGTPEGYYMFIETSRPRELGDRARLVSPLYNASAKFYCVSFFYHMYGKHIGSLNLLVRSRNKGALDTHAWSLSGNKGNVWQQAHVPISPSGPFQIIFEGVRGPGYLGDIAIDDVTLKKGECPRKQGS
# T2: human MDGA1 WT soluble ectodomain (residues 22-920, lacking the GPI anchor region), (His)6-tagged (human, UniProt Q8NFP4-1 22-920)
# T2 sequence: T1 sequence with D300V
# T3: human MDGA1 T135C/N313C soluble ectodomain, (His)6-tagged (human, UniProt Q8NFP4-1 22-920, T135C | N313C)
# T3 sequence: T1 sequence with T121C, N299C, D300V
# T4: human MDGA1 I336D soluble ectodomain, (His)6-tagged (human, UniProt Q8NFP4-1 22-920, I336D)
# T4 sequence: T1 sequence with D300V, I322D
# B1: extracellular domain of rat NLGN2 (residues V43-H612) with splice insert A (domain or fragment, UniProt Q62888-1 43-612, looked up)
# chain: VVNTAYGRVRGVRRELNNEILGPVVQFLGVPYATPPLGARRFQPPEAPASWPGVRNATTLPPACPQNLHGALPAIMLPVWFTDNLEAAATYVQNQSEDCLYLNLYVPTEDGPLTKKRDEATLNPPDTDIRDSGKKPVMLFLHGGSYMEGTGNMFDGSVLAAYGNVIVATLNYRLGVLGFLSTGDQAAKGNYGLLDQIQALRWLSENIAHFGGDPERITIFGSGAGASCVNLLILSHHSEGLFQKAIAQSGTAISSWSVNYQPLKYTRLLAAKVGCDREDSTEAVECLRRKSSRELVDQDVQPARYHIAFGPVVDGDVVPDDPEILMQQGEFLNYDMLIGVNQGEGLKFVEDSAESEDGVSASAFDFTVSNFVDNLYGYPEGKDVLRETIKFMYTDWADRDNGEMRRKTLLALFTDHQWVAPAVATAKLHADYQSPVYFYTFYHHCQAEGRPEWADAAHGDELPYVFGVPMVGATDLFPCNFSKNDVMLSAVVMTYWTNFAKTGDPNQPVPQDTKFIHTKPNRFEEVVWSKFNSKEKQYLHIGLKPRVRDNYRANKVAFWLELVPHLHNLH
# Columns and labels:
# Experiment in all cases: SPR
# [1] = target: T1, human MDGA1 V314D soluble ectodomain, …
# [2] = target: T2, human MDGA1 WT soluble ectodomain …
# [3] = target: T3, human MDGA1 T135C/N313C soluble …
# [4] = target: T4, human MDGA1 I336D soluble ectodomain, …
binder,measurement,setting,value
B1,binding result,[1],binds
same,Kd,[2],3.4 nM
same,binding result,[3],binds
same,binding result,[4],binds
